Test results as given in patent US20260146091A1 (FUNDACI N PARA LA INVESTIGACI N M DICA APLICADA, published 2026).

T1: biotinylated mPD-1-Fc (BPS Bioscience) (mouse; human, UniProt Q02242 25-169, biotinylated (site not stated))
T1 construct: extracellular domain; Bought from BPS Bioscience; also called mouse PD-1
T1 sequence (looked up): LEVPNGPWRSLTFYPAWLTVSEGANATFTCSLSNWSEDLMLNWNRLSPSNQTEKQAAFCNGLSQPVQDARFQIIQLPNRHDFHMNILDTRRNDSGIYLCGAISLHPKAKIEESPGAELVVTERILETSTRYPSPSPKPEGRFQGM

B1: Nb6p-Fc (Nb6p fused to mouse IgG2a Fc domain including hinge) (Fc fusion)
chain: AEVQLVESGGGLVQAGGSLRLSCAAAGRSFNSNAMGWVRQAPGKEREIVAVISATGSYTYYEDSVKGRFTISRDNSKNTVSLQMSSLSSEDTAVYYCAGSRTAALTTIMTLFNYWGQGTQVTVSSPGPRGPTIKPCPPCKCPAPNLLGGPSVFIFPPKIKDVLMISLSPIVTCVVVDVSEDDPDVQISWFVNNVEVHTAQTQTHREDYNSTLRVVSALPIQHQDWMSGKEFKCKVNNKDLPAPIERTISKPKGSVRAPQVYVLPPPEEEMTKKQVTLTCMVTDFMPEDIYVEWTNNGKTELNYKNTEPVLDSDGSYFMYSKLRVEKKNWVERNSYSCSVVHEGLHNHHTTKSFSRTPGK
notes: Fc homodimer, purified on protein A from supernatants of BHK-21 cells electroporated with SFV-Nb6p-Fc RNA; also called dimeric Nb6p
B2: Nb11-Fc (Nb11 fused to mouse IgG1 Fc domain including hinge) (Fc fusion)
chain: AQVQLVQSGGGSVQAGDSLRLSCAVSGHPDSSYSMAWFRQAPGKERELVALISWSGAITHYSDSVKDRFTISRDNAKNEMYLQMDSLKPEDTAVYFCQADDPTSELNQYWGQGTQVTVSSGCKPCICTVPEVSSVFIFPPKPKDVLTITLTPKVTCVVVDISKDDPEVQFSWFVDDVEVHTAQTQPREEQFNSTFRSVSELPIMHQDWLNGKEFKCRVNSAAFPAPIEKTISKTKGRPKAPQVYTIPPPKEQMAKDKVSLTCMITDFFPEDITVEWQWNGQPAENYKNTQPIMDTDGSYFVYSKLNVQKSNWEAGNTFTCSVLHEGLHNHHTEKSLSHSPGK
notes: Fc homodimer, concentrated from supernatants of BHK-21 cells electroporated with SFV-Nb11-Fc RNA; also called dimeric Nb11

Experiments:
[1] = biological target: T2, biotinylated hPD-L1 fused to human IgG Fc (BPS Bioscience) (human, UniProt Q9NZQ7 19-238, biotinylated (site not stated)); assay: competitive ELISA, human PD-1/PD-L1; the reference value of envafolimab (5.25 nM) is from the literature
T2 construct: extracellular domain; Bought from BPS Bioscience; also called human PD-L1
T2 sequence (Q9NZQ7 19-238): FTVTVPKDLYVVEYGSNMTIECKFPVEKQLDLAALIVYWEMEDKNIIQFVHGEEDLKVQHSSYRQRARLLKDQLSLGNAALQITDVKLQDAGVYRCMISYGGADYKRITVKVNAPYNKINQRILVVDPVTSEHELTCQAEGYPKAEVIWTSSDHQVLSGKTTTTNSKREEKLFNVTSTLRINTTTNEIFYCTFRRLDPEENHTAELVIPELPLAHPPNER

[2] = biological target: T2, biotinylated hPD-L1 fused to human IgG …; assay: competitive ELISA, human PD-1/PD-L1
Description: (§1) The ability of nanobodies (Nbs) to inhibit the binding of PD-1 with PD-L1 was evaluated by competitive ELISA. For human molecules, plates were coated with 0.5 μg/mL hPD-1-Fc (R&D, Minneapolis, MN) in PBS o/n at 4° C. […] For mouse molecules, a similar protocol was followed. […] The signal of wells incubated without Nbs or antibodies were considered 100% of PD-1/PD-L1 binding.

[3] = biological target: T3, mPD-L1-Fc (mouse PD-L1 ectodomain fused to human IgG1 Fc, BioLegend) (mouse; human, UniProt Q9EP73 19-239); assay: competitive ELISA, mouse PD-1/PD-L1
T3 construct: extracellular domain; Bought from BioLegend; not shown: human IgG1 Fc domain
T3 sequence (Q9EP73 19-239): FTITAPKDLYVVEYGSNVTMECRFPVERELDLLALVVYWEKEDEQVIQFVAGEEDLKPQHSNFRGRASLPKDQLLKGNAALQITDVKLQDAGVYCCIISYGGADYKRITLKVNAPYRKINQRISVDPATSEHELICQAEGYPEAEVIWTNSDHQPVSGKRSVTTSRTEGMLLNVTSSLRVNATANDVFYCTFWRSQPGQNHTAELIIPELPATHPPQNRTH
Description: as §1

[4] = biological target: T4, hPD-1-Fc (human PD-1 ectodomain fused to human IgG1 Fc, R&D) (human, UniProt Q15116 25-170); assay: competitive ELISA, human PD-1/PD-L1
T4 construct: extracellular domain; Bought from R&D; not shown: human IgG1 Fc domain
T4 sequence (Q15116 25-170): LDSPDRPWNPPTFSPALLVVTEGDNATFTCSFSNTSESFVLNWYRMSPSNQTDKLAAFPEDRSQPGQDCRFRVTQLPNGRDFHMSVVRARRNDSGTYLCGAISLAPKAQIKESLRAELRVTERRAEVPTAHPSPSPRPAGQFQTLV
Description: as §1

[5] = biological target: T1, biotinylated mPD-1-Fc (BPS Bioscience); assay: competitive ELISA, mouse PD-1/PD-L1
Description: as §1

| Binder | fold by which the literature IC50 of envafolimab is higher than that of Nb6p-Fc [1] | fold IC50 reduction against monomeric Nb6p [2] | fold IC50 reduction of the Fc homodimer against monomeric Nb6p [2] | fold IC50 reduction against monomeric Nb6p [3] | fold IC50 reduction of the Fc homodimer against monomeric Nb6p [3] | fold IC50 reduction against monomeric Nb11 [4] | fold IC50 reduction against nivolumab [4] | fold lower IC50 than nivolumab [4] | fold IC50 reduction against clone RMPI-14 [5] | fold IC50 reduction against monomeric Nb11 [5] |
| --- | --- | --- | --- | --- | --- | --- | --- | --- | --- | --- |
| B1 | ~10 fold | ~7 fold | ~8 fold | ~7 fold | ~8 fold | – | – | – | – | – |
| B2 | – | – | – | – | – | ~40 fold | 10 fold | 8.6 fold | 700 fold | ~40 fold |
